Key:
[1] = target: HSPB6 (Homo sapiens) (UniProt O14558); conditions: cited from earlier work
[2] = target: 14-3-3ζ (UniProt P63104); test: SEC-MALS of homodimer, 50 µM; conditions: reference: 14-3-3ζ wild type; sites S58
[3] = target: HSPB6-nhpSer16 (UniProt O14558); test: AUC; sedimentation equilibrium; 14.3, 7.2 and 3.6 μM; 8,000, 10,000 and 15,000 rpm; 5 °C; 50 mM Tris pH 7.4, 150 mM NaCl, 1 mM TCEP; global fit to A + B ↔ AB with fixed masses of a HSPB6 dimer and a 14-3-3ζ dimer
[4] = target: HSPB6-pSer16 (UniProt O14558); test: as above
Sequence of HSPB6-pSer16 (O14558 whole entry): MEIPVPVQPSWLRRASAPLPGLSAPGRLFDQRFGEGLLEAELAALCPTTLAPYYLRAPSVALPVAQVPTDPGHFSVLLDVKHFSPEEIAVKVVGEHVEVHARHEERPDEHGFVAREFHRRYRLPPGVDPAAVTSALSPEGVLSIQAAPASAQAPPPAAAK

[5] = target: 14-3-3ζ WT (human) (UniProt P63104); test: SEC-MALS; 14-3-3ζ variants alone, injected at 50 μM initial concentration; Superdex 200 10/300 GL; 50 mM Tris pH 7.4, 150 mM NaCl, 0.5 mM TCEP; room temperature; dimer to monomers
[6] = target: HSPB6-nhpSer16 (UniProt O14558); test: SEC-MALS; co-purified 14-3-3ζ/HSPB6 complexes, or purified HSPB6 mixed with 14-3-3ζ; Superdex 200 10/300 GL; 50 mM Tris pH 7.4, 150 mM NaCl, 0.5 mM TCEP; room temperature; samples at 50 μM
[7] = target: HSPB6-pSer16 (UniProt O14558); test: as above
[8] = target: 14-3-3ζ (UniProt P63104); test: His-tag co-purification after E. coli co-expression; conditions: reference: HSPB6 wild type (Ser16); sites S16
[9] = target: FLAG-CRBN (human) (UniProt Q96SW2); test: co-IP; 20 μM purified Myc-14-3-3ζ added to lysate of HEK293T cells expressing FLAG-CRBN (Calyculin A, no phosphatase), 1 h; ANTI-FLAG M2 affinity gel; 50 mM Tris pH 7.5, 150 mM NaCl; Western blot with α-FLAG and α-myc
Sequence of FLAG-CRBN (human) (Q96SW2 whole entry): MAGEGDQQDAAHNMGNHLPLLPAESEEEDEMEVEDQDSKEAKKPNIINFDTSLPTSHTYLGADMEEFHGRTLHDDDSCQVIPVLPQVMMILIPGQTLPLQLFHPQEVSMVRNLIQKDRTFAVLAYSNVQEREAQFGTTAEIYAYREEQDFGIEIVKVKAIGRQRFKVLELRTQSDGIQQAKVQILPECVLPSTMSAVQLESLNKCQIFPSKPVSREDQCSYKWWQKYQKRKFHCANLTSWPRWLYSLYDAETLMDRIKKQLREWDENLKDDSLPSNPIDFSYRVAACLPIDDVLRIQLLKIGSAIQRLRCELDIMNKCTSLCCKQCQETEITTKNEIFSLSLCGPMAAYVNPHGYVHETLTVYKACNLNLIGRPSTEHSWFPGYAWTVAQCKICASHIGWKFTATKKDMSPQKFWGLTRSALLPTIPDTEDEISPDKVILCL

Sequence of 14-3-3ζ WT (P63104 1-230): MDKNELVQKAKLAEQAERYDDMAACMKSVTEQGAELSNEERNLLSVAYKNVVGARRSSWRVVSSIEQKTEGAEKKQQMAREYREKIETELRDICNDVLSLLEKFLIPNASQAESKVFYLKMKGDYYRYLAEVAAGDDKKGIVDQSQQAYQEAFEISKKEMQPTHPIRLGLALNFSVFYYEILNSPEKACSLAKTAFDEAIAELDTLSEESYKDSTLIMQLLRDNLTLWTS
Sequence of 14-3-3ζ (from UniProt P63104) (P63104 whole entry): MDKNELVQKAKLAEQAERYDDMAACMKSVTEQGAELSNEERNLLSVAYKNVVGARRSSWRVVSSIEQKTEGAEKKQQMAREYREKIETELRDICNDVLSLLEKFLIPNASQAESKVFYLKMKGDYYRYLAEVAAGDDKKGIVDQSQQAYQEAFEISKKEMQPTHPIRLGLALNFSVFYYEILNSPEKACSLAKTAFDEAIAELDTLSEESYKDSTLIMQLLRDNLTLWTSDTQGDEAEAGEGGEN
Sequence of 14-3-3ζ (from UniProt P63104) 14-3-3ζ pSer58 (genetic code expansion) (P63104 whole entry, change not shown): as the sequence (P63104 whole entry) above
Sequence of 14-3-3ζ (UniProt P63104) (P63104 whole entry): as above
Sequence of myc-14-3-3ζ nhpSer58 (P63104 whole entry): as above
Sequence of HSPB6 (Homo sapiens) (O14558 whole entry): as the sequence (O14558 whole entry) above

In the case of 14-3-3ζ (from UniProt P63104), the Kd [1] is given as 560 nM.

In the case of “14-3-3ζ (from UniProt P63104) 14-3-3ζ pSer58 (genetic code expansion)”, the “binding against the reference” value [2] is reported as “lost”.

With “14-3-3ζ WT (from UniProt P63104 1-230) (natural protein)” the Kd [3] was 120 nM, the Kd [4] was 92 nM and the stoichiometry N [5] was 2. For the same substance, the stoichiometry N (14-3-3ζ chains per HSPB6 chain (2:2)) [6] was 1 and the stoichiometry N (14-3-3ζ chains per HSPB6 chain (2:2)) [7] was 1.

With “HSPB6 (small heat shock protein B6) (from UniProt O14558) HSPB6 pSer16 (genetic code expansion)” the “binding against the reference” value [8] was “gained”.

With “myc-14-3-3ζ nhpSer58 (from UniProt P63104 1-245) (natural protein)” the fold co-immunoprecipitated relative to myc-14-3-3ζ WT or pSer58 [9] was 10 fold.
